Laboratory results taken from patent US9645151B2, “Targeting phosphofructokinase and its glycosylation form for cancer” (California Institute of Technology, priority 2012, dated 2017).
Changes are numbered by the printed parent chain. Names and notes keep the numbering of the source.

Legend:
PFK1 [1] = biological target: T1, PFK1 (Homo sapiens, UniProt P17858); assay: PFK1 oligomerization by native gel electrophoresis; settings: 50 nM F-2,6-BP, 50° C. for 30 min (FIG. 21)
T1 construct: made in house
T1 sequence (P17858 1-780): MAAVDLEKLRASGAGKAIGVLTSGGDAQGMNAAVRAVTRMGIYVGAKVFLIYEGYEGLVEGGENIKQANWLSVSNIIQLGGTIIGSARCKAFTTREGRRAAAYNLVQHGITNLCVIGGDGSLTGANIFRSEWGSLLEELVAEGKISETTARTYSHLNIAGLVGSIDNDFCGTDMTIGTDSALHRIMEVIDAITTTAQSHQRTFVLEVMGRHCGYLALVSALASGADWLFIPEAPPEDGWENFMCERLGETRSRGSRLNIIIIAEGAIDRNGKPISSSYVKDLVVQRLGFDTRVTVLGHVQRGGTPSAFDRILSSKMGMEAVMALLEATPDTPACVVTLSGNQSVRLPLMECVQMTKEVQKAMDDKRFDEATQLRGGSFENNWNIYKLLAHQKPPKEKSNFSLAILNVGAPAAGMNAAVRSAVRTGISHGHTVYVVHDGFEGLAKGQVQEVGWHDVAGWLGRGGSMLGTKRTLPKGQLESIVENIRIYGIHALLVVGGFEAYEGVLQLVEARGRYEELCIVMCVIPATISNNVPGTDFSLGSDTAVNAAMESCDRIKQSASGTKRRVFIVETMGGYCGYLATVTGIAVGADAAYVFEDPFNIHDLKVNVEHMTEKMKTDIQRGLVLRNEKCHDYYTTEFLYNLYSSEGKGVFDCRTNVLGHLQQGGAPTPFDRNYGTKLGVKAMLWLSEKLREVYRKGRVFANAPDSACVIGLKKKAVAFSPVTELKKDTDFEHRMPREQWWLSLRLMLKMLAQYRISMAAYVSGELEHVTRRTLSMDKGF
Protocol: Flag-tagged PFK1 (L isoform) was transiently expressed in 293T cells with or without co-expression of HA-tagged OGT. After 36 h, Flag-tagged PFK1 was isolated from the lysate using Flag M2 immunoaffinity resin and eluted with a 3 Å˜Flag peptide as described above. The eluent was concentrated using Amicon Ultra Centrifugal Filters (10-kD molecular weight cutoff). Similarly, 293T cells expressing Flag-tagged PFK1 were treated with PUGNAc (100 μM, 12 h) or cultured under hypoxic conditions (0.5% O2, 5% CO2, and 94.5% N2) at 37° C. for 24 h, before protein isolation. As a control, heat treatment of PFK1 in the presence or absence of 50 nM F-2,6-BP was performed at 50° C. for 30 min. The proteins were then subjected to native gel electrophoresis (Bio-Rad) and visualized by Coomassie blue staining as described above.

[2] = system: H1299, A549, or 293T cells; assay: Cell viability by trypan blue exclusion after PUGNAc treatment; type: cell-based, human; settings: PUGNAc 100 μM for 9 h
PFK1 [3] = assay: Analysis of PFK1 glycosylation (chemoenzymatic labeling, immunoblot); type: cell-based, human; settings: 293T cells (FIG. 14)
Protocol: To carry out chemoenzymatic labeling and biotinylation of proteins in cell lysates, cell lines and tissues were first lysed in lysis buffer (1% SDS, 50 mM Tris-HCl, pH 7.5, 100 mM NaCl, 10 μM PUGNAc, and Complete™ protease inhibitors (Roche)). The cell lysate (400 μg) was then labeled according to the Click-iT O-GlcNAc Enzymatic Labeling System protocol (Invitrogen) and conjugated with an alkyne-biotin compound as per the Click-iT Protein Analysis Detection Kit protocol (Invitrogen). Control experiments were carried out in parallel in the absence of the labeling enzyme GalT. […] To quantify the percentage of glycosylation, the intensity of the band eluted from resin (the glycosylated protein fraction) and the band from the input (the total protein) were measured. […] The percentage of glycosylation on Flag-tagged PFK1 was determined by using an antibody to Flag. To quantify the percentage of glycosylation, the intensity of the PEG-shifted band (the glycosylated protein fraction) and the unshifted band (the non-glycosylated protein fraction) were measured and the ratio of the intensity of the glycosylated protein fraction over the intensity of the total protein (glycosylated protein fraction plus non-glycosylated protein fraction) was taken as the glycosylation stoichiometry.

PFK1 [4] = biological target: T2, PFK1 (Homo sapiens, UniProt P17858); assay: PFK1 enzymatic assay; type: biochemical
T2 construct: made in house
T2 sequence (P17858 2-780): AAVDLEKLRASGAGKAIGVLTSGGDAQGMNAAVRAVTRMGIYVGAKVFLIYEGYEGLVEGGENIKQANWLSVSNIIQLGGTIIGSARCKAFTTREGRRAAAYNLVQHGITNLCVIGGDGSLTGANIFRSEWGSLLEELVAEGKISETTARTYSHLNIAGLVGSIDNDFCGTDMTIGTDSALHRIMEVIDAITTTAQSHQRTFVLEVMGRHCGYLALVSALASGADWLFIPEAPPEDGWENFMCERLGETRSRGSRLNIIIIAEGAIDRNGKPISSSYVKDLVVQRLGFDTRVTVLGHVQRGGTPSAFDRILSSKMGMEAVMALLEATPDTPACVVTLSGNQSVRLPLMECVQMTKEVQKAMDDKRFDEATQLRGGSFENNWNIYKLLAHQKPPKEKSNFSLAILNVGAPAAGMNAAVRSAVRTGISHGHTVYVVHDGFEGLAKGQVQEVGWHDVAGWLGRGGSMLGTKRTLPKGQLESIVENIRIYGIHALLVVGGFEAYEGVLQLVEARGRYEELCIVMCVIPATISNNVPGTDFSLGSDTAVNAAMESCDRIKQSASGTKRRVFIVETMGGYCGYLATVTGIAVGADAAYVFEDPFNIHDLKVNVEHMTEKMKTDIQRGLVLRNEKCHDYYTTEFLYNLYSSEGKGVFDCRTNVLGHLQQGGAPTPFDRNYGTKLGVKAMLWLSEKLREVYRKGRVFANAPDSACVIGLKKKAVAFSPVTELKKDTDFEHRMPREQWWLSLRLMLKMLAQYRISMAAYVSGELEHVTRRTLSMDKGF
Protocol: In order to measure PFK1 activity, a reaction was performed using either cell lysate (20 μg) or recombinant purified PFK1 (0.1 μg) in 1 ml of reaction buffer containing 50 mM Tris-HCl pH 7.5, 100 mM KCl, 5 mM MgCl2, 1 mM ATP, 0.2 mM NADH, 5 mM Na2HPO4, 0.1 mM AMP, 1 mM NH4Cl, 5 mM fructose-6-phosphate, 5 U of triose phosphate isomerase (Sigma-Aldrich), 1 U of aldolase (Sigma-Aldrich) and 1 U of α-glycerophosphate dehydrogenase (Sigma-Aldrich). Absorbance was recorded at 340 nm at room temperature every 15 s for 10 min using a Uvikon UV-Vis spectrophotometer (Research Instruments International). One unit of PFK1 activity is defined as the amount of enzyme that catalyzes the conversion of 1 μmol of fructose-6-phosphate to fructose-1,6-bisphosphate per min.
In order to determine the activation of PFK1 by F-2,6-BP (Sigma-Aldrich) over the indicated concentrations, reactions were performed in similar buffer conditions as described above except that an inhibitory concentration of ATP (3 mM) was used. […]
293T cells were transiently transfected with Flag-tagged PFKL, Myc-tagged PFKP, or Myc-tagged PFKM. […] Glycosylation levels were analyzed by chemoenzymatic labeling with a 5-kD mass tag, and PFK1 activities were measured on the purified proteins as described above.

With `O=P(O)(O)OC[C@H]1O[C@@](CO)(OP(=O)(O)O)[C@@H](O)[C@@H]1O` [F-2,6-BP, fructose-2,6-bisphosphate] the “rescue of reduction of PFK1 oligomerization state by heat denaturation” value (PFK1 [1]) was “partial rescue”.

For `CC(=O)N[C@H]1/C(=N/OC(=O)Nc2ccccc2)O[C@H](CO)[C@@H](O)[C@@H]1O` [PUGNAc, O-(2-acetamido-2-deoxy-D-glucopyranosylidene) amino Nphenylcarbamate], the “effect on cell viability” value [2] was “did not affect cell viability”.

B1: S529A PFK1: modified PFK-1 polypeptide with serine to alanine substitution at position 529 (SEQ ID NO: 2) (protein)
chain: T1 sequence (P17858 1-780) with S529A
For B1, the “glycosylation of PFK1 mutant” value (PFK1 [3]) was “abolished”, the “PFK1 activity versus F-2,6-BP concentration” value (PFK1 [4]; 3 mM ATP (FIG. 19)) was “impaired at lower F-2,6-BP concentrations” and the “PFK1 activity under hypoxia” value (PFK1 [4]; expressed in 293T cells, hypoxic vs normoxic (FIG. 2A)) was “not significantly changed”.
